From PMC12774641

Molecular target: SpβL1 Namat (nicotinamide ADP-ribose transferase), untagged (SpβL1 phage)
Experiment: mass photometry; Refeyn mass photometry; 50 nM Namat after gel filtration

stoichiometry N: 2
Substance: SpβL1 Namat (nicotinamide ADP-ribose transferase), untagged (enzyme)
